Reference: patent US20230203169 (published 2023)

Columns and labels:
FcγRIIIa 158F (human) = FcγRIIIa 158F (human) (UniProt P08637); test: BLI
CD20 [1] = biological target: T1, CD20 (human, UniProt P11836); test: FACS, Raji cells, 4C
T1 chain: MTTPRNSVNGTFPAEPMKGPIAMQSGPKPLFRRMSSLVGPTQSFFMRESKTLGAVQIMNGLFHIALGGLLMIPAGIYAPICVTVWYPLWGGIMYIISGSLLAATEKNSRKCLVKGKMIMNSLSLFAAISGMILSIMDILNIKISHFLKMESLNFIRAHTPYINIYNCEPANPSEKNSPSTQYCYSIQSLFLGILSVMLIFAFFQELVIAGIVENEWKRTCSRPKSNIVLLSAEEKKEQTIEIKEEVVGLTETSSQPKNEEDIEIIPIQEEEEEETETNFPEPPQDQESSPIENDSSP

CD20 [2] = biological target: T1, CD20; test: FACS, Raji cells, 4C
CD20 [3] = biological target: T1, CD20; test: FACS, Wil2-s cells, 4C
CD20 [4] = biological target: T1, CD20; test: FACS, Wil2-s cells, 4C

FcγRIIIa 158F (human), sequence (P08637 17-208): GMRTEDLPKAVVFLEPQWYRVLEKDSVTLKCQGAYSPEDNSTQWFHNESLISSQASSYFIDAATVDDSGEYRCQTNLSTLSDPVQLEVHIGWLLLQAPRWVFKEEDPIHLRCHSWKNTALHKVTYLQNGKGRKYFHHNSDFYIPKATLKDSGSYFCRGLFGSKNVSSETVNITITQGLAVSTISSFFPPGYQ

Obinutuzumab (Gazyva)
Kd (FcγRIIIa 158F (human)): 226 nM

B1: Rituximab (antibody)
chain 1: QVQLQQPGAELVKPGASVKMSCKASGYTFTSYNMHWVKQTPGRGLEWIGAIYPGNGDTSYNQKFKGKATLTADKSSSTAYMQLSSLTSEDSAVYYCARSTYYGGDWYFNVWGAGTTVTVSA
chain 2: QIVLSQSPAILSASPGEKVTMTCRASSSVSYIHWFQQKPGSSPKPWIYATSNLASGVPVRFSGSGSGTSYSLTISRVEAEDAATYYCQQWTSNPPTFGGGTKLEIK
Kd (CD20 [1]): 12.7 nM | IC50 (CD20 [2]): 13.3 nM | IC50 (CD20 [3]): 16.8 nM | Kd (CD20 [4]): 16 nM
